Positions count from the first letter of the chain named.
T1: human E-selectin, cell-surface expressed (human, UniProt P16581 22-610)
T1 sequence: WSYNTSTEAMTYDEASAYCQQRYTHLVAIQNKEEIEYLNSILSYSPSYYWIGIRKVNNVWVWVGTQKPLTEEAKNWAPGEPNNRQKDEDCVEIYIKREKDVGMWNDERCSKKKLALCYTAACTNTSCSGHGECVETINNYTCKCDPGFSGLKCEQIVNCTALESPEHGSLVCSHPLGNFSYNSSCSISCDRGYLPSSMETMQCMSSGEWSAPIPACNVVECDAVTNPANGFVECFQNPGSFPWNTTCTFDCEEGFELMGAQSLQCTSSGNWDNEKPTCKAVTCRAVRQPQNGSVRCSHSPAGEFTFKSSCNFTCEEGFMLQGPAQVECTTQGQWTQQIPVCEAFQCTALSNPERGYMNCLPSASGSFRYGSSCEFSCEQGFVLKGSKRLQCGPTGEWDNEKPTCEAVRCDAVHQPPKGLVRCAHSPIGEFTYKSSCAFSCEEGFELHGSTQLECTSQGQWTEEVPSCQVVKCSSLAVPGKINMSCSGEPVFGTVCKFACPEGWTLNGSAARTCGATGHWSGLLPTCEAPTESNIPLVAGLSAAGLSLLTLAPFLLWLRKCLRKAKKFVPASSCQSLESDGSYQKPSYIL

T2: human P-selectin expressed on CHO cells (human, UniProt P16109 42-830)
T2 construct: whole, on cells; also called CHO-human P-selectin cells; CHO-P-selectin cells
T2 sequence (looked up): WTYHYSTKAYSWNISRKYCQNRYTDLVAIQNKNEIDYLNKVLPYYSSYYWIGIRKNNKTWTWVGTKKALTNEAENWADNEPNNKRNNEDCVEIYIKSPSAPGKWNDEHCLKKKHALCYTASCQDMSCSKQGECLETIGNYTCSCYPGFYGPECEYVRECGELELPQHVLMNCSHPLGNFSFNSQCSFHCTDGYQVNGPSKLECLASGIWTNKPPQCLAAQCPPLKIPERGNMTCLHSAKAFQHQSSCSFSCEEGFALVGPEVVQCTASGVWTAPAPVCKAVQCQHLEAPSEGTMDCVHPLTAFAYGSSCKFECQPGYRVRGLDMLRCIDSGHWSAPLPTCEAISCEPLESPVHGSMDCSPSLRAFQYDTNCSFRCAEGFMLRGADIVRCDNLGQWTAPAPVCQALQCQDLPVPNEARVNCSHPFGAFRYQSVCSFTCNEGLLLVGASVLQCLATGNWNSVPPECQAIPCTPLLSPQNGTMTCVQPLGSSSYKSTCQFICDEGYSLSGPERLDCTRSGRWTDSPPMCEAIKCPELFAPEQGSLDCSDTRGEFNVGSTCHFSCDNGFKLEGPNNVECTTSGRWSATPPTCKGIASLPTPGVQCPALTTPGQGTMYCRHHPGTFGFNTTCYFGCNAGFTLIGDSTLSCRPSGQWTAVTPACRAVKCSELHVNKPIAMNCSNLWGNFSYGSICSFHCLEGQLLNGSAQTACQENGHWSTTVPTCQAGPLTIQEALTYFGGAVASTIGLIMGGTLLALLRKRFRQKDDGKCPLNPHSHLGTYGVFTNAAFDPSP

T3: cynomolgus monkey E-selectin extracellular domain with 10 His purification tail (cynomolgus monkey, UniProt P16581 22-554 (human entry))
T3 construct: also called cynomolgus E-selectin; truncated cynomolgus monkey E-selectin
T3 chain: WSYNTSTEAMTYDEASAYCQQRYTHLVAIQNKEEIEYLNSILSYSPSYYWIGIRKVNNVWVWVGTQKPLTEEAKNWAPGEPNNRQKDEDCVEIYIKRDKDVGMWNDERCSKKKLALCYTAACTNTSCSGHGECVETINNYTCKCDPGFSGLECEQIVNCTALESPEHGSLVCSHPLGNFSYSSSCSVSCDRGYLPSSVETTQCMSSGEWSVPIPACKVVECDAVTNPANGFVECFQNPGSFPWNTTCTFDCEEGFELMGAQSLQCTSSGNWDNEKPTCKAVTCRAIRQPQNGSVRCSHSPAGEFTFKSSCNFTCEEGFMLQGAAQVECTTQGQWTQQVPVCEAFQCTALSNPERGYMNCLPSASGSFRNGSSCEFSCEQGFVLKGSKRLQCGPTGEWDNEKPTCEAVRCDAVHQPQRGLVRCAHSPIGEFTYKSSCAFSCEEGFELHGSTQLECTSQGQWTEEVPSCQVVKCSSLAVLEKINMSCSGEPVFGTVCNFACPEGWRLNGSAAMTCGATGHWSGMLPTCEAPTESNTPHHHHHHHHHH

B1: anti-E-selectin antibody 0180 chimera (antibody, human IgG1, kappa, V domains shown)
VH: EVQLQQSGAELGKPGTSVKLSCKVSGYKIRSSYMHWVNQRPGKGLEWIGRIDPANGNTIYGDKFKSKATLTSDTSSNTAYIQLSQLKSDDTAIYFCAIDIGTTFDYWGQGVMVTVSS
VL: DIQMTQSPSFLSASVGDRVTINCKASQHINRYLNWYQQKLGEAPKLLIYDANNLQTGIPSRFSGSGSGTDFTLTISSLQPEDVATYFCLQHNSWPNTFGAGTKLELKR
notes: rat VH/VL on effector-null human IgG1 and human kappa
B2: anti-E-selectin antibody 0164 chimera (antibody, human IgG1, kappa, V domains shown)
VH: EVQLQQSGAEFGKPGTSVKLSCKVSGYNIRSSYMHWVNQRPGKGLEWIGRIDPANGNTIYAEKFKIKAILTADSSSNTAYMQLSQLKSDDTAIYFCAMDLYSTSEYWGQGVMVTVSS
VL: B1 VL with A25T, H28N, D50N, N53S, G64A, S76N, H91D, N96L, A100S, L106I
notes: as for B1
B3: anti-E-selectin antibody 0159 chimera (antibody, human IgG1, kappa, V domains shown)
VH: EVQLQQSGAELGKPGTSVKLSCKVSGYNIRSTYMHWVSQRPGKGLEWIGRIDPANGNTIYAEKFKRKATLTADTSSNTAYMQLSQLKSDDRAIYFCAMEVRVSFEYWGQGVMVTVSS
VL: DIQMTQSPSFLSASVGDRVTINCKASQNINKYLDWYQQKLGEGPKLLIYYTNNLHTGIPSRFSGSGSGTDFTLTISSLQPEDVATYFCLQHDSGYTFGAGTKLELKR
notes: as for B1
B4: anti-E-selectin antibody 0170 chimera (antibody, human IgG1, kappa, V domains shown)
VH: EVQLQQSGAELGKPGTSVKLSCKVSGYSIRSTYMHWVNQRPGKGLEWVGRIDPANGNTIYAERFKNKATLTADTSSNTAYMQLSQLKSDDTAIYFCAVEILGIFDYWGQGVMVTVSS
VL: B3 VL with N30D, G43A, I48M, Y50N, N53S, D92N
notes: as for B1
B5: anti-E-selectin antibody 0158 chimera (antibody, human IgG1, kappa, V domains shown)
VH: QVQLKESGPGLVQPSETLSLTCTVSGFSISTYNVHWLRQPPGKGLEWMGMMWSGGSPDYNSALKSRLSISRDTSKNQVFLKMNSLQSEDTTTYYCARWGGGFDYWGQGVMVTVSS
VL: DIVLTQSPTTLSVTPGETVSLSCRASHSIGTNLHWYQQKTNESPRLLIKFTSQSISGIPSRFSASGSGTDFTLNINNVEFDDVSSYFCQQTQSWPLTFGSGTKLEIKR
notes: as for B1
B6: anti-E-selectin antibody 0039 chimera (antibody, human IgG1, kappa, V domains shown)
VH: QVQLKETGPGLVQPTQTLSITCTVSGFSLTGYYMQWVRQTPGKGLEWMGFIRSSGSTEYNSEFKSRLSISRDTSKNQVFLKMNSLKTEDTGVYYCARCPYKYSSFVYVGVMDAWGQGAPVTVSS
VL: EIVMTQSPTSMSTSIGERVTLNCKASQTVGINVDWYQQTPGQPPKLLIYGASNRHTGVPDRFTGSGFGRDFTLTISNVEAEDLAVYCCLQYGSIPHTFGPGTKLELKR
notes: as for B1

biological target: T1, human E-selectin, cell-surface expressed; assay: cell-based or functional assay

Row | static neutralization, HL-60 Cell adhesion CHO-Human E-selectin cells IC50 (nM) | Binder
1 | > 50 % inhibition at 444 nM | B1
2 | > 50 % inhibition at 16.5 nM | B2
3 | > 50 % inhibition at 49.4 nM | B3
4 | > 50 % inhibition at 444 nM | B4
5 | > 50 % inhibition at 16.5 nM | B5

biological target: T2, human P-selectin expressed on CHO cells; assay: flow cytometry, CHO cells
Protocol: Cells were maintained in growth medium at 37° C., 5% CO₂ and 95% air in a humidified incubator. Methotrexate or Zeocin were removed from the medium prior to culture for experiments. CHO-E selectin cells or P-selectin cells were detached from T-150 flasks using citric saline (135 mM KCl, 15 mM sodium citrate) and immediately re-calcified with the addition of CaCl₂) to the detached cells to a final concentration of 1 mM. Growth media was immediately added to the detached cells, then centrifuged at 300×g for 5 minutes at room temperature to pellet the cells. Cells were plated into 96-well V-bottom plates in cold CHO buffer consisting of phosphate buffered saline (PBS), pH 7.4 containing bovine serum albumin (BSA; Sigma-Aldrich) at final concentration of 1%, calcium chloride at final concentration of 1 mM, and sodium azide at a final concentration of 0.1%, for 5 minutes on wet ice. After incubation, the cells were centrifuged at 300×g for 2 minutes at 4° C. to remove the buffer.
After incubation, antibodies were removed and the cells were washed three times by centrifugation at 300×g for 1 minute at 4° C. and resuspended in cold CHO buffer. The washed cells were incubated for 30 minutes on wet ice with 100 μL of a 1:1000 dilution of APC-conjugated AffiniPure F(ab′)₂ Fragment Goat Anti-human IgG, Fcγ (Jackson Imnnunoresearch). The cells were washed three or four times prior to resuspension in CHO buffer for flow cytometric analysis. A Becton Dickinson LSRFortessa instrument using 640 nanometer laser line was used to acquire cell fluorescence data. Geometric mean fluorescence of cells was analyzed by FlowJo software package (FlowJo, LLC) and plotted against antibody concentration. The estimated EC₅₀ values were calculated using nonlinear regression analysis in the Prism suite (GraphPad, version 8) (Table 8).

Row | binding result | Binder
6 | no binding | B1
7 | no binding | B2
8 | no binding | B3
9 | no binding | B4
10 | no binding | B5

Biological target: T3, cynomolgus monkey E-selectin …
Assay: AlphaLISA competition vs sialyl Lewis A-PAA-biotin

Row | EC50 [nM] | Binder
11 | > 63 | B6
12 | < 1 | B1
13 | < 1 | B2
14 | < 1 | B3
15 | < 1 | B4

Source: patent publication US20240076386A1 (Pfizer, published 2024)
